Test results published in patent US20190382475.
Changes are numbered by the printed parent chain. Numbers in names are those of the source.

Experiments:
Assay in all cases: LC-UV-ESI-MS of purified Fab after co-expression of two heavy and two light chains in HEK293T (chain competition); competing chains not named
[1] = target: anti c-Kit Fab heavy chain Q39K/K147D/S165R
[2] = target: anti c-Kit Fab heavy chain Q39/K147/S165D
[3] = target: anti c-Kit Fab heavy chain Q39/K147/S165 (wild type)
[4] = target: anti c-Kit Fab heavy chain Q39K/K147/S165R
[5] = target: anti c-Kit Fab heavy chain Q39D/K147/S165D
[6] = target: anti c-Kit Fab heavy chain Q39D/K147/S165
[7] = target: anti c-Kit Fab heavy chain Q39K/K147D/S165
[8] = target: anti c-Kit Fab heavy chain Q39/K147D/S165
[9] = target: anti c-Kit Fab heavy chain Q39/K147/S165R
[10] = target: anti c-Kit Fab heavy chain Q39K/K147/S165
[11] = target: anti c-Kit Fab heavy chain Q39/K147D/S165R

B1: anti c-Kit Fab light chain Q38D/Q124K/K169D (protein)
chain: DIQMTQSPSSLSASVGDRVTITCRASQSISSYLNWYQDKPGKAPKLLIYYTSRLQSGVPSRFSGSGSGTDFTLTISSLQPEDFATYYCQQGRRLWSFGGGTKVEIKRTVAAPSVFIFPPSDEKLKSGTASVVCLLNNFYPREAKVQWKVDNALQSGNSQESVTEQDSDDSTYSLSSTLTLSKADYEKHKVYACEVTHQGLSSPVTKSFNRGEC
B1 was tested, and the Correct pairing (%) [1] was 100%.

B2: anti c-Kit Fab light chain Q38/Q124D/K169 (protein)
chain: B1 chain with D38Q, K123D, D168K
B2 gave a Correct pairing (%) [2] of 88% and a Correct pairing (%) [3] of 91%.

B3: anti c-Kit Fab light chain Q38D/Q124/K169D (protein)
chain: B1 chain with K123Q
Work on B3 yielded a Correct pairing (%) [4] of 75%.

B4: anti c-Kit Fab light chain Q38K/Q124/K169 (protein)
chain: B1 chain with D38K, K123Q, D168K
With B4 the Correct pairing (%) [5] was 95% and the Correct pairing (%) [6] was 95%.

B5: anti c-Kit Fab light chain Q38D/Q124K/K169 (protein)
chain: B1 chain with D168K
With B5 the Correct pairing (%) [7] was 95%.

B6: anti c-Kit Fab light chain Q38K/Q124D/K169 (protein)
chain: B1 chain with D38K, K123D, D168K
B6 showed a Correct pairing (%) [5] of 100% and a Correct pairing (%) [6] of 93%.

B7: anti c-Kit Fab light chain Q38/Q124K/K169 (protein)
chain: B1 chain with D38Q, D168K
Protein B7 has a Correct pairing (%) [8] of 91%.

B8: anti c-Kit Fab light chain Q38/Q124/K169D (protein)
chain: B1 chain with D38Q, K123Q
B8 showed a Correct pairing (%) [9] of 68%.

B9: anti c-Kit Fab light chain Q38D/Q124/K169 (protein)
chain: B1 chain with K123Q, D168K
Protein B9 has a Correct pairing (%) [10] of 74%.

B10: anti c-Kit Fab light chain Q38/Q124/K169 (wild type) (protein)
chain: B1 chain with D38Q, K123Q, D168K
In the case of B10, the Correct pairing (%) [2] is reported as 87% and the Correct pairing (%) [3] is reported as 63%.

B11: anti c-Kit Fab light chain Q38/Q124K/K169D (protein)
chain: B1 chain with D38Q
B11 showed a Correct pairing (%) [11] of 90%.
